Measured values: patent US20190338002A1 (Pieris, published 2019)

Columns and labels:
[1] = target: T1, human alpha CGRP (SEQ ID NO: 80) (human, not fully specified); test: cell-based or functional assay
T1 peptide: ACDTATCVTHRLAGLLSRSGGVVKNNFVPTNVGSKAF

[2] = target: T2, human beta CGRP (SEQ ID NO: 81) (human, not fully specified); test: cell-based or functional assay
T2 peptide: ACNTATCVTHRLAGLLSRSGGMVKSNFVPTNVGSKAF

[3] = target: T3, rat alpha CGRP (SEQ ID NO: 82) (rat); test: cell-based or functional assay
T3 peptide: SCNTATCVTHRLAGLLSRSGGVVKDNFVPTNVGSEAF

[4] = target: T4, rat beta CGRP (SEQ ID NO: 83) (rat, not fully specified); test: cell-based or functional assay
T4 peptide: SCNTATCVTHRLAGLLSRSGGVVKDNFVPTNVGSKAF

[5] = target: T1, human alpha CGRP (SEQ ID NO: 80); test: SPR, 37 C, mutein captured, CGRP analyte
How it was run: (§1)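 Biotinylated lipocalin muteins were captured on streptavidin-oligo CAP chip, and CGRP was injected at 30, 3 and 0.3 nM or at a single 25 nM at 37 °C (180 s association, 5400 s dissociation) in HBS-EP+. Double-referenced sensorgrams were globally fit to a 1:1 model for ka and kd.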

[6] = target: T2, human beta CGRP (SEQ ID NO: 81); test: SPR, 37 C, mutein captured, CGRP analyte
How it was run: as §1

[7] = target: T3, rat alpha CGRP (SEQ ID NO: 82); test: SPR, 37 C, mutein captured, CGRP analyte
How it was run: as §1

[8] = target: T4, rat beta CGRP (SEQ ID NO: 83); test: SPR, 37 C, mutein captured, CGRP analyte
How it was run: as §1

[9] = target: T1, human alpha CGRP (SEQ ID NO: 80); test: SPR Biacore 37 °C, mutein captured as ligand, ha CGRP (1-37) injected, 1:1 fit; repeat run 130208_NAN-DS-047 (not the run of Table 2) [contd]
Method: (§2) The Biotin CAPture Kit (GE Healthcare) was used to immobilize biotinylated lipocalin muteins to a chip surface. Muteins were biotinylated using standard NHS chemistry. Undiluted Biotin CAPture Reagent (streptavidin conjugated with ss-DNA oligo) was captured on a Sensor Chip CAP with the pre-immobilized complementary ss-DNA oligo. Thereafter, biotinylated muteins at 1 μg/mL were applied for 300 s at a flow rate of 5 μL/min.
(§3) CGRP species were applied in three concentrations of 30 nM, 3 nM and 0.3 nM at a flow rate of 30 μL/min or in a single concentration of 25 nM per cycle as shown in FIG. 2. The dilutions were injected with association times of 180 s and dissociation times of 5400 sec to obtain ka and kd information. Regeneration of the chip surface was achieved by injecting 6 M Guanidinium-HCl+0.25 M NaOH (120 s) with a flow rate of 10 μL/min. Injection of regeneration solutions was followed by an extra wash step with HBS-EP+(1×; BR-1006-69; GE Healthcare) running buffer and a stabilization period of 120 s.
(§4) The data were double-referenced by subtraction of the corresponding signals measured for the control channel (loaded with Biotin CAPture reagent only) and by subtraction of buffer injections from the binding responses. Association rate constant ka and dissociation rate constant kd for the binding reaction were determined using Biacore T200 Evaluation Software V2.0 for data processing and kinetic fitting. The data were globally fit with 1:1 binding model.

[10] = target: T2, human beta CGRP (SEQ ID NO: 81); test: SPR Biacore 37 °C, mutein captured as ligand, hb CGRP (1-37) injected, 1:1 fit; repeat run 130208_NAN-DS-047 (not the run of Table 2) [contd]
Method: as §2, §3, §4

[11] = target: T3, rat alpha CGRP (SEQ ID NO: 82); test: SPR Biacore 37 °C, mutein captured as ligand, ra CGRP (1-37) injected, 1:1 fit; repeat run 130208_NAN-DS-047 (not the run of Table 2) [contd]
Method: as §2, §3, §4

[12] = target: T4, rat beta CGRP (SEQ ID NO: 83); test: SPR Biacore 37 °C, mutein captured as ligand, rb CGRP (1-37) injected, 1:1 fit; repeat run 130208_NAN-DS-047 (not the run of Table 2) [contd]
Method: as §2, §3, §4

[13] = target: T4, rat beta CGRP (SEQ ID NO: 83); test: SPR Biacore 37 °C, mutein captured as ligand, rb CGRP sample PL1830 injected, 1:1 fit; repeat run 130903_NAN-DS-058 (not the run of Table 2) [contd]
[14] = target: T1, human alpha CGRP (SEQ ID NO: 80); test: SPR Biacore 37 °C, mutein captured as ligand, sample PL1827 (ha CGRP) injected, 1:1 fit; repeat run 130903_NAN-DS-058 (not the run of Table 2) [contd]
Method: as §2, §3, §4

[15] = target: T2, human beta CGRP (SEQ ID NO: 81); test: SPR Biacore 37 °C, mutein captured as ligand, sample PL1828 (hb CGRP) injected, 1:1 fit; repeat run 130903_NAN-DS-058 (not the run of Table 2) [contd]
Method: as §2
as §3, with “Injection of regeneration solutions was followed by an extra wash step with HBS-EP+(1×; BR-1006-69; GE Healthcare) running buffer and a stabilization period of 120 s.” left out
as §4, with “The data were globally fit with 1:1 binding model.” left out

[16] = target: T3, rat alpha CGRP (SEQ ID NO: 82); test: SPR Biacore 37 °C, mutein captured as ligand, sample PL1829 (ra CGRP) injected, 1:1 fit; repeat run 130903_NAN-DS-058 (not the run of Table 2) [contd]
Method: as §2
as §3, with “Injection of regeneration solutions was followed by an extra wash step with HBS-EP+(1×; BR-1006-69; GE Healthcare) running buffer and a stabilization period of 120 s.” left out
as §4, with “The data were globally fit with 1:1 binding model.” left out

[17] = target: T4, rat beta CGRP (SEQ ID NO: 83); test: SPR Biacore 37 °C, mutein captured as ligand, sample PL1830 (rb CGRP) injected, 1:1 fit; repeat run 130903_NAN-DS-058 (not the run of Table 2) [contd]
Method: as §2
as §3, with “Injection of regeneration solutions was followed by an extra wash step with HBS-EP+(1×; BR-1006-69; GE Healthcare) running buffer and a stabilization period of 120 s.” left out
as §4, with “The data were globally fit with 1:1 binding model.” left out

B1: lipocalin mutein SEQ ID NO: 11 (designed binder)
chain: QDSTSDLIPAPPLSKVPLQQNFQDNQFHGKWYVVGWAGNTLLREDKDPIKMQAIIYELKEDRSYNVTWVYFSEKKCNYHIETFVPGSQPGEFTLGTIKSYPGETPILVRVVSTNYNQHAMVFFKGVNQNREIFEIILYGRTKELTNELKENFIRFSKSLGLPENHIVFPVPIDQCIDGSAWSHPQFEK
notes: biotinylated by NHS chemistry for capture in SPR
[1]
  IC50, CGRP-induced cAMP production, SK-N-MC cells: 0.11 nM
[2]
  IC50, CGRP-induced cAMP production, SK-N-MC cells: 0.22 nM
[3]
  IC50, CGRP-induced cAMP production, L6 cells: 0.08 nM
[4]
  IC50, CGRP-induced cAMP production, L6 cells: 0.06 nM
[5]
  Kd: 0.015 nM
  koff: 4.55e-05 s⁻¹
  kon: 3.08e+06 M⁻¹ s⁻¹
[6]
  Kd: 0.007 nM
  koff: 5.63e-05 s⁻¹
  kon: 7.91e+06 M⁻¹ s⁻¹
[7]
  Kd: 0.08 nM
  koff: 7.6e-05 s⁻¹
  kon: 984000 M⁻¹ s⁻¹
[8]
  Kd: 0.042 nM
  koff: 7.3e-05 s⁻¹
  kon: 1.74e+06 M⁻¹ s⁻¹
[9]
  koff: 5.31e-05 s⁻¹
  kon: 2.02e+06 M⁻¹ s⁻¹
[10]
  koff: 4.61e-05 s⁻¹
  kon: 4.14e+06 M⁻¹ s⁻¹
[11]
  koff: 7.72e-05 s⁻¹
  kon: 867000 M⁻¹ s⁻¹
[12]
  koff: 5.56e-05 s⁻¹
  kon: 969000 M⁻¹ s⁻¹
[13]
  koff: 6.38e-05 s⁻¹
[14]
  koff: 6.55e-05 s⁻¹
  kon: 1.76e+06 M⁻¹ s⁻¹
[15]
  koff: 3.73e-05 s⁻¹
  kon: 2.41e+06 M⁻¹ s⁻¹
[16]
  koff: 8.08e-05 s⁻¹
  kon: 1.58e+06 M⁻¹ s⁻¹
[17]
  kon: 1.75e+06 M⁻¹ s⁻¹
